Measurements: patent publication US20240093191A1, “COMPOSITIONS AND METHODS FOR TREATING DISEASE ASSOCIATED WITH DUX4 OVEREXPRESSION” (RESEARCH INSTITUTE AT NATIONWIDE CHILDREN'S HOSPITAL, priority 2021, published 2024)

B1: U6.mi405G: mi405 construct with altered flanking sequences (nucleic acid)
DNA: ACGCCGCCATCTCTAGGCCCGCGCCGGCCCCCTCGCACAGACTTGTGGGAGAAGCTCGGCTACTCCCCTGCCCCGGTTAATTTGCATATAATATTTCCTAGTAACTATAGAGGCTTAATGTGCGATAAAAGACAGATAATCTGTTCTTTTTAATACTAGCTACATTTTACATGATAGGCTTGGATTTCTATAAGAGATACAAATACTAAATTATTATTTTAAAAAACAGCACAAAAGGAAACTCACCCTAACTGTAAAGTAATTGTGTGTTTTGAGACTATAAATATCCCTTGGAGAAAAGCCTTGTTTGACCGTTTAAACTCGAGTGAGCGATCCAGGATTCAGATCTGGTTTCTGTAAAGCCACAGATGGGAAACCAGATCTGAATCCTGGACTGCCTACTAGAGAATTCTTCGATTCTGCTTTTTT
B2: U6.mi405F: mi405 with one G at 5' end and 16 mer 3' flanking sequence with single CNNC motif (nucleic acid)
DNA: ACGCCGCCATCTCTAGGCCCGCGCCGGCCCCCTCGCACAGACTTGTGGGAGAAGCTCGGCTACTCCCCTGCCCCGGTTAATTTGCATATAATATTTCCTAGTAACTATAGAGGCTTAATGTGCGATAAAAGACAGATAATCTGTTCTTTTTAATACTAGCTACATTTTACATGATAGGCTTGGATTTCTATAAGAGATACAAATACTAAATTATTATTTTAAAAAACAGCACAAAAGGAAACTCACCCTAACTGTAAAGTAATTGTGTGTTTTGAGACTATAAATATCCCTTGGAGAAAAGCCTTGTTTGCTCGAGTGAGCGATCCAGGATTCAGATCTGGTTTCTGTAAAGCCACAGATGGGAAACCAGATCTGAATCCTGGACTGCCTACTAGTAATTCTTCGATTCTGCTTTTTT
B3: U6.mi405H: mi405 construct with altered flanking sequences (nucleic acid)
DNA: ACGCCGCCATCTCTAGGCCCGCGCCGGCCCCCTCGCACAGACTTGTGGGAGAAGCTCGGCTACTCCCCTGCCCCGGTTAATTTGCATATAATATTTCCTAGTAACTATAGAGGCTTAATGTGCGATAAAAGACAGATAATCTGTTCTTTTTAATACTAGCTACATTTTACATGATAGGCTTGGATTTCTATAAGAGATACAAATACTAAATTATTATTTTAAAAAACAGCACAAAAGGAAACTCACCCTAACTGTAAAGTAATTGTGTGTTTTGAGACTATAAATATCCCTTGGAGAAAAGCCTTGTTTGACCGTTTAAACTCGAGTGAGCGATCCAGGATTCAGATCTGGTTTCTGTAAAGCCACAGATGGGAAACCAGATCTGAATCCTGGACTGCCTACTAGAGCGCACGCCAGTTTTTT

What was measured:
[1] = test system: mi405 mature sequence; test: QPCR of mature mi405 (standard TaqMan cDNA synthesis) in HEK293 cells; assay type: cell-based, human; details: 24 h after transfection
Procedure: TaqMan Gene Expression Assay. QRT-PCR was carried out to quantify the expression of pri-mir-675, mir-675-5p and mi405 using TaqMan probes (ThermoFisher Scientific). Experiments were started by eliminating genomic DNA from the RNA preparations, and then cDNA was generated using the High-Capacity cDNA Reverse Transcription Kit (Applied Biosystems) following manufacturer's instructions. Within the same cDNA reaction, 1×RT random hexamer primers were used to generate the cDNA for RPL13A, used as a reference gene, and for pri-mir-675. To generate the cDNA for mir-675, the RT mir-675 reverse primer provided by ThermoFisher Scientific was used. For mi405, the mi405 qPCR protocol was done as it was previously described [Wallace et al., Mol. Ther. Methods Clin. Dev. 8: 121-30 (2018)]. To quantify mir-675 and mi405 levels, RNA was extracted using the total RNA protocol for the mirVana miRNA Isolation Kit (Ambion) from HEK293 cells. cDNA was generated using the High-Capacity cDNA Reverse Transcription Kit (Applied Biosystems) using a mix of random hexamer primers and specific reverse primer for pri-mir-675 and mir-675-5p. For mi405, 200 nM of the stem-loop forming primer (5′-[…]-3′) (SEQ ID NO: 144) was also used for the RT step. A custom TaqMan assay (Applied Biosystems) including 1.5 μM of Forward primer (5′-[…]-3′) (SEQ ID NO: 145), 0.7 μM of Reverse primer (5′-GTGCAGGGTCCGAGGT-3′) (SEQ ID NO: 146), and 0.2 μM of mi405 probe (5′-6FAM-ATACGACGTCCAGGAT-3′) (SEQ ID NO: 147) was then run using the CFX Connect Real Time system apparatus (Bio-Rad). RPL13A (Mm02526700_g1; Applied Biosystems) served as the reference gene. The TaqMan gene expression assay consisted of using the TaqMan Gene Expression Master mix and TaqMan probes purchased from ThermoFisher Scientific. 1× of probe was mixed with 1× of the TaqMan Gene Expression Master mix (ThermoFisher Scientific), and with 20 ng of cDNA. The mir-675- and mi405-specific primers and probes were designed to quantify only the mir-675-5p and mi405 mature sequence (see TaqMan Gene Expression Master mix protocol).
Apart from the effect on the inhibition efficiency of mi405, the effect of the flanking sequences on the expression of the miRNA also was tested. Therefore, the expression of the processed mature mi405 sequences was quantified using the standard and advanced TaqMan cDNA synthesis reaction. In the former reaction, a reverse primer detects the mature mi405 sequence following a stem-loop primer-based small RNA detection principle (ThermoFisher Scientific) (Jung et al., RNA (2013) 19: 1-10). The amplification and quantification steps were then performed using a standard TaqMan probe specific to mi405 that base pairs at the junction between the mi405 mature sequence and the reverse primer sequence (FIG. 6A). […] In the TaqMan advanced cDNA synthesis reaction, the mature sequence is extended through ligation of an adaptor sequence at the 5′ end and through the enzymatic addition of a polyA tail at the 3′ end of the mature mi405 sequence. The amplification and quantification steps were then performed using a TaqMan advanced probe specific to mi405 that normally base pairs with the 3′ end of the mature miRNA and with part of the adaptor sequence. Here, an additional TaqMan advanced probe (embedded probe) that only base pairs with the mature sequence of mi405 (FIG. 6B) was used. As a result, following TaqMan advanced cDNA synthesis reaction, droplet digital PCR (ddPCR) was performed to quantify mi405, mi405F, mi405B, mi405C, mi405G and mi405H expression levels. For this, TaqMan advanced embedded and overlapped mi405 probes (FIG. 6B) were used.

[2] = test system: DUX4-induced muscle toxicity; test: mi405 constructs (scAAV6) co-injected with AAV.CMV.DUX4-FL in mouse TA, H&E; assay type: in vivo, mouse (C57BL/6); details: scAAV6, 5e09 DRP co-injected with 5e09 DRP AAV.CMV.DUX4-FL, 8 weeks
Procedure: AAV Vector Delivery to Mice. (See also FIGS. 15A-B and 32A-B.) For determining bioactivity, 6- to 9-week-old C57BL/6 male and female mice received direct 35 μL IM injections into the TA. Mice received adeno-associated virus scAAV6.CMV.DUX4-FL at 5×10^9 DNase-resistant particles (DRP) co-injected with scAAV6.CMV.eGFP at 1×10^10 DRP, and a contralateral co-injection of scAAV6.CMV.DUX4-FL at 1×10^9 DRP or 5×10^9 DRP and scAAV6.U6.mir-675 at 5×10^10 DRP. To test toxicity of mir-675, the tibialis anterior (TA) was intramuscularly injected with increasing doses of scAAV6.U6.mir-675 at 5×10^10 DRP and 1×10^11 DRP, and injected contralateral TA with saline. To test mi405 toxicity, the TA was intramuscularly injected with 5×10^8 DRP, 5×10^9 DRP and 5×10^10 DRP of scAAV6.U6.mi405F, scAAV6.U6.mi405G or scAAV6.U6.mi405H and injected contralateral TA with saline. To test mi405 inhibition efficiency, the TA was co-injected with scAAV6.CMV.DUX4-FL at 5×10^9 DRP and scAAV6.U6.mi405F, G or H at 5×10^8 DRP, 5×10^9 DRP or 5×10^10 DRP. For this, a contralateral injection of either scAAV6.U6.mi405F, G or H or of scAAV6.CMV.DUX4-FL at 5×10^9 DRP was carried out. For mi405, all injections were compared to scAAV6.U6.mi405. Muscles were harvested at 2, 4 or 8 weeks post-injection. All animal studies were performed according to the NIH Guide for the Care and Use of Laboratory Animals.
Histology. (See also FIGS. 15A-B and 32A-B.) Dissected TA muscles were placed in O.C.T. Compound (Tissue-Tek) and frozen on liquid nitrogen-cooled isopentane. Cryosections were cut at 10 μm and then stained with H&E following standard protocols [Harper et al., Nat Med (2002) 8(3):253-61].
U6.mi405, U6.mi405F, U6.mi405G and U6.mi405H were co-injected using scAAV6 with AAV.CMV.DUX4-FL at equivalent doses (5e09 DNase Resistant Particles (DRP)) in the TA of C57BL/6 mice. This experiment was performed to investigate the efficiency of the four mi405 constructs to eliminate DUX4-induced muscle toxicity in vivo at doses equivalent to that of AAV.CMV.DUX4-FL. Previously, Wallace et al. [Wallace et al, Ann. Neurol. […]

Molecule | levels of mature mi405 sequence compared to U6.mi405 [1] | efficiency in eliminating DUX4-induced muscle toxicity compared to mi405 [2] | reduction of mature mi405 sequence expression relative to U6.mi405 ([1]; normalized to RPL13A)
B1 | greater or higher with the difference not being statistically significant | more efficient than mi405 | –
B2 | – | no enhanced inhibition efficiency in vivo when compared to mi405 | 85±5%
B3 | greater or higher with the difference not being statistically significant | more efficient than mi405 | –
